T1: Recombinant human IL-23 receptor (IL-23R) extracellular domain (ECD) protein (human, UniProt Q5VWK5 24-355)
T1 construct: also called human IL-23R ECD; hu IL-23R ECD
T1 sequence: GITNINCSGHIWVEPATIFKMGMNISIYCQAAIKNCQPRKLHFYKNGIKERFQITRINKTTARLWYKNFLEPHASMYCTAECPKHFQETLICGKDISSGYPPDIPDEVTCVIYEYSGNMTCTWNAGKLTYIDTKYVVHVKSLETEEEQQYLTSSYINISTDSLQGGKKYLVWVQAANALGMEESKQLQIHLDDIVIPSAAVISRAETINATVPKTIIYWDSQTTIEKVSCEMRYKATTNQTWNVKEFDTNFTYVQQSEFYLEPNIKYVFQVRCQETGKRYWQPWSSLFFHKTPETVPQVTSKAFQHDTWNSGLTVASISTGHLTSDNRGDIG

T2: human IL-23R on the cell surface (human, UniProt Q5VWK5 24-629)
T2 construct: whole, on cells; also called cell surface human IL-23R; IL-23R on iLite cells, HEK-IL-23R cells and primary human immune cells
T2 sequence (looked up): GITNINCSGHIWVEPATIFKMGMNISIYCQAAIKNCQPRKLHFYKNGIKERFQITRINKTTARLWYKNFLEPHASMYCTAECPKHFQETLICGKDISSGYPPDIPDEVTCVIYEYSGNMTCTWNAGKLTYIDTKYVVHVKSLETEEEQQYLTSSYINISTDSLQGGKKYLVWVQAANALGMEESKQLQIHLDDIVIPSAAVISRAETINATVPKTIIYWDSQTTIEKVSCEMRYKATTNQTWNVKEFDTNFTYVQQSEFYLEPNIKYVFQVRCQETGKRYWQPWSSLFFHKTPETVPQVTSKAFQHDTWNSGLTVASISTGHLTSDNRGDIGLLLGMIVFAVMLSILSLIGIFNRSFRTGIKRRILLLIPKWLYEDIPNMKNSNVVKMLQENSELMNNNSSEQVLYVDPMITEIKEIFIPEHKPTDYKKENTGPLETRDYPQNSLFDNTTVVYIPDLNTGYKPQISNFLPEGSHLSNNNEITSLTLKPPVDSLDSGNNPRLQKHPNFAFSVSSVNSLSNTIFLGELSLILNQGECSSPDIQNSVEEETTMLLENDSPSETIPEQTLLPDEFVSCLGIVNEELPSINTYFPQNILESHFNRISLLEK

T3: rat IL-23R extracellular domain (ECD) protein (rat)
T3 construct: also called rat IL-23R ECD; F1LX96 amino acids 24-354
T3 chain: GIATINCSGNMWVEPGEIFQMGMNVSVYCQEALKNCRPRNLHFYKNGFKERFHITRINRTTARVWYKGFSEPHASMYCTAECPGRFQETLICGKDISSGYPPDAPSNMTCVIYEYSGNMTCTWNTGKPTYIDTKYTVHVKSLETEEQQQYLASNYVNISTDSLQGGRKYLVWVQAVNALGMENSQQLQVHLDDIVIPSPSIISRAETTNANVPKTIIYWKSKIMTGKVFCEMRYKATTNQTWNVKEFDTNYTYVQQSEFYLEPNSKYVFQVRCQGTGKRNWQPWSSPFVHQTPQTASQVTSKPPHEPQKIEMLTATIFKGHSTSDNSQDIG

B1: I23RB165 (antibody, mouse IgG2a, kappa, V domains shown)
VH: EVQLQQSGAELVRPGASVKLSCTASGFNIKDSLMHWVKQRPEQGLEWIGWIDPEDGKTKYAPKFQDKATITADTSSNTAYLQLSSLTSEDTAIYYCARREVLDYFDYWGQGTTLTVSS
VL: DIVMTQSPASLAVSLGQRATISCRASKSVSTSGYSYMHWYQQKPGQPPKLLIYLASNLESGVPARFSGSGSGTDFTLNIHPVEEEDAATYYCQHSRELPLTFGAGTKLEMKR
notes: mouse immunization; mouse IgG2a/kappa
B2: I23RB173 (antibody, mouse IgG2a, kappa, V domains shown)
VH: DVQLQESGPGLVKPSQSLSLTCSVTGYSITSGYYWNWIRQFPGNKLEWMGYISYDGGNNYNPSLKNRISITRDTSKNQFFLKLNSVTTEDTATYYCARDAGLLPYYAMDYWGQGTTLTVSS
VL: DIKMTQSPAIMSASPGEKVTITCSASSSVSYMHWFQQKPGTSPKLWIYSTSNLASGVPARFSGSGSGTSYSLTISRMEAEDAATYYCQQRSSYPLTFGDGTKLEMKR
notes: as for B1
B3: I23RB71 (antibody, mouse IgG2a, kappa, V domains shown)
VH: DVQLQESGPDLVKPSQSLSLTCTVTDYSITRGYNWHWIRQFPGNKLEWMGYIHYSGSTNYNPSLKSRISITRDTSKNQFFLQLNSVTTEDTATYYCARQYGLKAMDYWGQGTSVTVSS
VL: DIVMTQSHKFMSTSVGDRVSITCKASQDVITAVAWYQQKPGQSPKLLIYSASYRYTGVPDRFTGSGSGTDFTFTISSVQAEDLAVYFCQQHFGTPYTFGSGTKLEMKR
notes: as for B1

target: T1, Recombinant human IL-23 receptor …; test: SPR Biacore 8K, supernatant, analysis 2
Method in brief: (§1)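 mAbs captured (~150 RU) on Biacore 8K; human or rat IL-23R ECD injected at 0.8–500 nM (5-fold series) at 25 °C in HBS-P+ with 100 μg/ml BSA. Association 3 min at 50 μL/min, dissociation 30 min. Ka, Kd and KD from Langmuir 1:1 fit.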

Kd [nM] | koff [s⁻¹] | kon [M⁻¹ s⁻¹] | Binder
29.1 | 0.00941 | 324000 | B1
36.1 | 0.0103 | 285000 | B2
0.129 | 4.63e-05 | 358000 | B3

target: T2, human IL-23R on the cell surface; test: flow cytometry, HEK-IL-23R cells (Expt E)

EC50 [nM] | Binder
≤ 9.7 | B1
≤ 9.7 | B2
≤ 9.7 | B3

Target: T3, rat IL-23R extracellular domain (ECD) …
Test: SPR Biacore 8K, supernatant
Method in brief: as §1

binding result | Binder
no binding (tested: 500 nM) | B1
no binding (tested: 500 nM) | B2
no binding (tested: 500 nM) | B3

target: T1, Recombinant human IL-23 receptor …; test: SPR Biacore 8K, supernatant, analysis 1
Method in brief: as §1

Kd [nM] | koff [s⁻¹] | kon [M⁻¹ s⁻¹] | Binder
18.1 | 0.00806 | 446000 | B1
25.7 | 0.00759 | 296000 | B2
0.328 | 0.000231 | 704000 | B3

Source: US20250179196A1 (Janssen / Centocor, published 2025)
